# Tested on: APF activity on primary normal bladder epithelial cells
# Assay: Blocking of APF antiproliferative activity by recombinant growth factors (^3H-thymidine incorporation)
# Format: cell-based, human
# Method: ^3H-Thymidine Incorporation. Primary normal adult human bladder epithelial cells (HBE) were grown from biopsies obtained at autopsy from patients who had no history of bladder disorder. HBE cells were plated at a density of 1×10^4 cells/well onto 96 well tissue culture plates and incubated at 37° C. overnight (resulting in approximately 60% confluence the following day). The medium was then changed to MEM containing only 1% glutamine and 1% antibiotic/ antimycotic solution, and the cells were incubated at 37° C. overnight. […] Cells were then trypsinized, and insoluble cell contents harvested and methanol-fixed onto glass fiber filter paper, as previously described^62; the amount of radioactivity incorporated was determined as counts per minute using a Beckman LS 3801 scintillation counter. […]
# To determine whether the antiproliferative effect of the APF on bladder epithelial cells might be due to a decrease in HB-EGF production, primary normal bladder epithelial cells were simultaneously incubated with varying levels of recombinant HB-EGF, EGF, or IGF1 and low molecular weight urine fractions from IC patients. […] This effect was evident using a concentration of HB-EGF (10 ng/ml) in the range previously determined for normal controls (2-22 ng/ml, mean 6.33 ng/ml) 12 as well as higher concentrations (30 and 100 ng/ml). […]
molecule,measurement,setting,value
"heparin-binding epidermal growth factor-like growth factor (protein, UniProt Q99075 63-148, looked up) Heparin-binding EGF-like …: DLQEADLDLLRVTLSSKPQALATPNKEEHGKRKKKGKGLGKKRDPCLRKYKDFCIHGECKYVKELRAPSCICHPGYHGERCHGLSL",inhibition of antiproliferative activity of HPLC-purified APF,"10 ng purified APF, 30 ng/ml of HB-EGF, normal and IC patient cells",inhibited for 2 of 3 APF specimens
same,inhibition of IC urine antiproliferative activity by recombinant growth factor,"co-incubation with low molecular weight IC urine fractions, HB-EGF 10, 30 and 100 ng/ml, EGF, IGF1 up to about 12 and 25 fold normal levels",inhibited by HB-EGF in a dose-dependent manner

# Source: patent publication US20020016443A1, “Antiproliferative factor” (priority 1996, published 2002)
